Assay results published in US20160251440A1 (Ablynx, published 2016).

What was measured:
[1] = target: T1, human CXCR4 (on cells, viral lipoparticles or membrane extracts) (human, UniProt P61073 1-352); test: flow cytometry on THP-1 cells (CD4 and CXCR4), detection via tag
T1 construct: whole, on cells; also called hCXCR4 VLPs; CXCR4-lip

[2] = target: T1, human CXCR4 (on cells, viral …); test: cell-based or functional assay
[3] = target: T1, human CXCR4 (on cells, viral …); test: cell-based or functional assay; remark: listed apart in the source
[4] = target: T1, human CXCR4 (on cells, viral …); test: FACS, Jurkat cells
[5] = target: T2, recombinant IL-3Rα ectodomain (human, UniProt P26951 19-305); test: ELISA on recombinant IL-3Ra ectodomain (both lower panels)
T2 construct: extracellular domain; also called recombinant IL-3Ra; biotinylated-IL-3Rα ectodomain
T2 sequence (looked up): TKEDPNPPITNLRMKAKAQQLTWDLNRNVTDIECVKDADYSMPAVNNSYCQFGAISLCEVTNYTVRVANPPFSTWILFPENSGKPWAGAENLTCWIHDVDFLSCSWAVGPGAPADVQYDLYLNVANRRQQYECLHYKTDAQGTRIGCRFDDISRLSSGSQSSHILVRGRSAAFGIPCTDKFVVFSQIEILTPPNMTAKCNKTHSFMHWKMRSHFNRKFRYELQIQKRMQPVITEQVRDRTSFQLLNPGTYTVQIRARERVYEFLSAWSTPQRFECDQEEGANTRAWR

[6] = target: T1, human CXCR4 (on cells, viral …); test: cell-based or functional assay; remark: listed apart in the source
[7] = target: T1, human CXCR4 (on cells, viral …); test: FACS, Jurkat E6-1 cells
[8] = target: T1, human CXCR4 (on cells, viral …); test: [125I]-SDF-1 displacement, Hek-CXCR4 membrane extracts
[9] = target: T1, human CXCR4 (on cells, viral …); test: cell-based or functional assay; remark: listed apart in the source
[10] = target: T1, human CXCR4 (on cells, viral …); test: flow cytometry on MOLM-13 cells (IL-3Ra higher than CXCR4)
[11] = target: T1, human CXCR4 (on cells, viral …); test: FACS, MOLM-13 cells
[12] = target: T1, human CXCR4 (on cells, viral …); test: flow cytometry on U-937 cells (CXCR4, virtually no IL-3Ra)
[13] = target: T1, human CXCR4 (on cells, viral …); test: cell-based or functional assay; remark: listed apart in the source
[14] = target: T1, human CXCR4 (on cells, viral …); test: cell-based or functional assay; remark: listed apart in the source
[15] = target: T1, human CXCR4 (on cells, viral …); test: flow cytometry on THP-1 cells (CXCR4 and IL-3Ra)
[16] = target: T3, human CD4, cell-expressed (human, UniProt P01730 26-458); test: cell-based or functional assay
[17] = target: T4, human IL12Rβ1, cell-expressed (human, UniProt P42701 24-662); test: flow cytometry on isolated CD8+ T cells of donor D863, anti-Flag detection
T4 construct: whole, on cells; in the context of the heterodimeric receptor; also called IL12Rb1

[18] = target: T1, human CXCR4 (on cells, viral …); test: ELISA on coated hCXCR4 lipoparticles against null lipoparticles, anti-c-myc detection
[19] = target: T3, human CD4, cell-expressed; test: cell-based or functional assay; remark: listed apart in the source
[20] = target: T3, human CD4, cell-expressed; test: FACS, Jurkat E6.1 cells (CD4 no or low)
[21] = target: T3, human CD4, cell-expressed; test: FACS, human T cells
[22] = target: T3, human CD4, cell-expressed; test: FACS, Jurkat E6-1 cells (CD4 low)
[23] = target: T3, human CD4, cell-expressed; test: FACS, MOLM-13 cells
[24] = target: T3, human CD4, cell-expressed; test: FACS, THP-1 cells
[25] = target: T3, human CD4, cell-expressed; test: FACS, MOLM-13 cells; remark: listed apart in the source
[26] = target: T3, human CD4, cell-expressed; test: cell-based or functional assay; remark: listed apart in the source
[27] = target: T3, human CD4, cell-expressed; test: cell-based or functional assay; remark: listed apart in the source
[28] = target: T5, human IL-23R extracellular domain Fc-fusion (human, UniProt Q5VWK5 24-355); test: SPR Biacore T100, captured IL-23R-Fc
T5 construct: extracellular domain; bought; also called IL-23R-Fc
T5 sequence (looked up): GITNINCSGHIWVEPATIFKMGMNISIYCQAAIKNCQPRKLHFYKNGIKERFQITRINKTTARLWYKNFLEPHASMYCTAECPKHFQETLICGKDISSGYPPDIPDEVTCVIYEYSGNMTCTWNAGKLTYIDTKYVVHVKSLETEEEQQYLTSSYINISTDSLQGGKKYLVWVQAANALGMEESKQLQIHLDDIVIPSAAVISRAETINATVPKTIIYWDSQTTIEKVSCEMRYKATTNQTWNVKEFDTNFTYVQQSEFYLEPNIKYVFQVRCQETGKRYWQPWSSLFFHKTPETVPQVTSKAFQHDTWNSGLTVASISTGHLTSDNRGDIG

[29] = target: T6, human IL-23R, cell-expressed (human, UniProt Q5VWK5 24-629); test: FACS, Th17-differentiated T cells
T6 construct: whole, on cells
T6 sequence (looked up): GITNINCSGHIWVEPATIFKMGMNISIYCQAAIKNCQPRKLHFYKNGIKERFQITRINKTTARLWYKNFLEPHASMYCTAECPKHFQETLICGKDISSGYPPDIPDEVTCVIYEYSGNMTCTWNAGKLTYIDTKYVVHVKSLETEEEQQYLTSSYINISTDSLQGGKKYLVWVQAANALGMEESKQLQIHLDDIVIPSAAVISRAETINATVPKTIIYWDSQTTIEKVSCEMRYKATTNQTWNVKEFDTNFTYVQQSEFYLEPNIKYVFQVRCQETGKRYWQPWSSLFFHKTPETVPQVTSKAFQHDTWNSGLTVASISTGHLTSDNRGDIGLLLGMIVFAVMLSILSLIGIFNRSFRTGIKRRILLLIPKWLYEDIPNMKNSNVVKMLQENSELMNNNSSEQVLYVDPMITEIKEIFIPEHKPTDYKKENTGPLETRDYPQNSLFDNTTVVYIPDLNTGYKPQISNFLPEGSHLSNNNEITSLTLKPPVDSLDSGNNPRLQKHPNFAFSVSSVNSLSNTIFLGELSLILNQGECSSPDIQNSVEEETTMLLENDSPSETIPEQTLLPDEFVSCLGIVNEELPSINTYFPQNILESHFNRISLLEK

[30] = target: T5, human IL-23R extracellular domain …; test: competition ELISA, coated IL-23 + 5 nM IL-23R-Fc
[31] = target: T3, human CD4, cell-expressed; test: flow cytometry on MOLM-13 cells (CD4, no IL12R or IL23R), upper right panel
[32] = target: T6, human IL-23R, cell-expressed; test: cell-based or functional assay
[33] = target: T5, human IL-23R extracellular domain …; test: competition ELISA, coated IL-23 + IL-23R-Fc; IL-23 competition ELISA of Table 3.3

T1 sequence (P61073 whole entry): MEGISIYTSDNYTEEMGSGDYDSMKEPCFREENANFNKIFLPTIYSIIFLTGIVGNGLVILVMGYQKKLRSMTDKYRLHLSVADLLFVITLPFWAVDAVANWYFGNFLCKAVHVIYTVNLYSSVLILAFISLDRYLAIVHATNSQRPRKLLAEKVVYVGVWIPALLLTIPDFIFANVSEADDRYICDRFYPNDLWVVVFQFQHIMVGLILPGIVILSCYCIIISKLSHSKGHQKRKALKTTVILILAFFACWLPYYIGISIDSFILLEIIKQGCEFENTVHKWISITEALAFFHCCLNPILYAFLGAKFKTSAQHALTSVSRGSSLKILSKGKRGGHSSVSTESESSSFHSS

B1: 281F12 (VHH)
VHH: EVQLVESGGGLVQAGDSLRLSCAASGRAFSRYAMGWFRQAPGKEREFVAAIGWGPSKTNYADSVKGRFTISRDNAKNTVYLQMNTLKPEDTAVYSCAAKFVNTDSTWSRSEMYTYWGQGTLVTVSS
notes: also called CXCR4#2; 4CXCR281F12-FLAG3-HIS6
EC50 (read off the curve) [1]: ~6 nM
IC50, HIV-1 NL4.3 wt, MT-4 [2]: 22.7 nM
IC50, NL4.3 2G12 res., MT-4 [2]: 17.3 nM
IC50, NL4.3 AMD-3100 res., MT-4 [2]: > 1670 nM
IC50, NL4.3 CD4#8 res., MT-4 [2]: 87.3 nM
IC50, NL4.3 CXCL-12res., MT-4 [2]: 220 nM
IC50, NL4.3 CXCR4#2 res, MT-4 [2]: 2330 nM
IC50, SDF-1 chemotaxis, Jurkat E6-1 [3]: 84.2 nM
IC50, SDF-1 chemotaxis, MOLM-13 [3]: 86 nM
EC50 [4]: 7.8 nM
binding result [5]: no binding (tested: 1E-6 M)
IC50, SDF-1 chemotaxis, Jurkat [6]: 68 nM
EC50 [7]: 7 nM
Ki [8]: 26.9 nM
IC50, CXCL-12 chemotaxis, Jurkat E6-1 [9]: 96.8 nM
IC50, CXCL-12 chemotaxis, MOLM-13 [9]: 86 nM
EC50 (read off the curve) [10]: ~20 nM
EC50 [11]: 5.2 nM
EC50 (read off the curve) [12]: ~10 nM
IC50, HIV-1 HE, MT-4 [13]: 10 nM
IC50, HIV-1 NL4.3, MT-4 [13]: 22.7 nM
IC50, HIV-2 ROD, MT-4 [13]: 86.7 nM
IC50, HIV-1 BaL (R5), PBMC [14]: > 1670 nM
IC50, HIV-1 NL4.3 (X4), MT-4 [14]: 67.1 nM
IC50, HIV-1 NL4.3 (X4), PBMC [14]: 29.3 nM
IC50, HIV-1 NL4.3 (X4), U87 [14]: > 6670 nM
EC50 (read off the curve) [15]: ~20 nM

B2: 3F11 (VHH)
VHH: EVQLVESGGGSVQPGGSLTLSCGTSGRTFNVMGWFRQAPGKEREFVAAVRWSSTGIYYTQYADSVKSRFTISRDNAKNTVYLEMNSLKPEDTAVYYCAADTYNSNPARWDGYDFRGQGTQVTVSS
notes: also called CD4#8; 03F11
IC50, HIV-1 NL4.3 neutralization, PBMCs [16]: 29.3 nM
binding result [17]: no binding (tested: 250 nM)
binding result [18]: no binding (tested: 100 nM)
IC50, HIV-1 NL4.3 wt, MT-4 [19]: 34.7 nM
IC50, NL4.3 2G12 res., MT-4 [19]: 23.3 nM
IC50, NL4.3 AMD-3100 res., MT-4 [19]: 22.7 nM
IC50, NL4.3 CD4#8 res., MT-4 [19]: > 6700 nM
IC50, NL4.3 CXCL-12res., MT-4 [19]: 153 nM
IC50, NL4.3 CXCR4#2 res, MT-4 [19]: > 6700 nM
EC50 [20]: 1.1 nM
EC50 [21]: 0.76 nM
EC50 [22]: 61 nM
EC50 [23]: 0.7 nM
EC50 [24]: 1 nM
EC50 [25]: 0.6 nM
IC50, HIV-1 HE, MT-4 [26]: 10 nM
IC50, HIV-1 NL4.3, MT-4 [26]: 34.7 nM
IC50, HIV-2 ROD, MT-4 [26]: 22.7 nM
IC50, HIV-1 NL4.3 (X4), MT-4 [27]: 66.7 nM
IC50, HIV-1 NL4.3 (X4), PBMC [27]: 580 nM
IC50, HIV-1 NL4.3 (X4), U87 [27]: > 1330 nM

B3: IL23R#19: 150D02 (VHH)
VHH: EVQLVESGGGLVQPGGSLTLSCVASGRTFSTDVMGWFRQAPGKEREFVAAHRTSGISTVYAASVKGRFTISRDNAKNTVYLGMKSLKPEDTAVYVCAAGSDASGGYDYWGQGTLVTVSS
notes: also called LG150D02
binding result [17]: no binding (tested: 250 nM)
Kd [28]: 11 nM
koff [28]: 0.0081 s⁻¹
kon [28]: 730000 M⁻¹ s⁻¹
EC50 [29]: 20 nM
IC50 [30]: 4.7 nM
binding result [31]: no binding (tested: 1E-6 M)
IC50, IL-23 dependent IL-17 release, PBMC D840 [32]: 100 nM
IC50 [33]: 1.7 nM
